Broadly, the Kd is the constant that tells how readily two partners part at equilibrium. High values mean lower affinity, low ones higher affinity.

Data on 3 molecules can be found in PMC11039987.

Assay in all cases: fluorescence anisotropy
On the technique in general: In fluorescence polarisation assays a small probe gives low polarisation when free and higher when bound to something large.

For data set [1], the target named is T1, RecBCD (prokaryote (species  in the …, UniProt P08394;P07648;P04993 1-1180;1-1122;1-608)).
Data set [2] concerns the target T1, RecBCD. This is another data set of the same source.
Data set [3] concerns the target T1, RecBCD. The source holds these as a separate data set.

Like-named read-outs stand apart in the source and are kept apart here.

T1 sequence (P08394 whole entry, chain 1 of 3): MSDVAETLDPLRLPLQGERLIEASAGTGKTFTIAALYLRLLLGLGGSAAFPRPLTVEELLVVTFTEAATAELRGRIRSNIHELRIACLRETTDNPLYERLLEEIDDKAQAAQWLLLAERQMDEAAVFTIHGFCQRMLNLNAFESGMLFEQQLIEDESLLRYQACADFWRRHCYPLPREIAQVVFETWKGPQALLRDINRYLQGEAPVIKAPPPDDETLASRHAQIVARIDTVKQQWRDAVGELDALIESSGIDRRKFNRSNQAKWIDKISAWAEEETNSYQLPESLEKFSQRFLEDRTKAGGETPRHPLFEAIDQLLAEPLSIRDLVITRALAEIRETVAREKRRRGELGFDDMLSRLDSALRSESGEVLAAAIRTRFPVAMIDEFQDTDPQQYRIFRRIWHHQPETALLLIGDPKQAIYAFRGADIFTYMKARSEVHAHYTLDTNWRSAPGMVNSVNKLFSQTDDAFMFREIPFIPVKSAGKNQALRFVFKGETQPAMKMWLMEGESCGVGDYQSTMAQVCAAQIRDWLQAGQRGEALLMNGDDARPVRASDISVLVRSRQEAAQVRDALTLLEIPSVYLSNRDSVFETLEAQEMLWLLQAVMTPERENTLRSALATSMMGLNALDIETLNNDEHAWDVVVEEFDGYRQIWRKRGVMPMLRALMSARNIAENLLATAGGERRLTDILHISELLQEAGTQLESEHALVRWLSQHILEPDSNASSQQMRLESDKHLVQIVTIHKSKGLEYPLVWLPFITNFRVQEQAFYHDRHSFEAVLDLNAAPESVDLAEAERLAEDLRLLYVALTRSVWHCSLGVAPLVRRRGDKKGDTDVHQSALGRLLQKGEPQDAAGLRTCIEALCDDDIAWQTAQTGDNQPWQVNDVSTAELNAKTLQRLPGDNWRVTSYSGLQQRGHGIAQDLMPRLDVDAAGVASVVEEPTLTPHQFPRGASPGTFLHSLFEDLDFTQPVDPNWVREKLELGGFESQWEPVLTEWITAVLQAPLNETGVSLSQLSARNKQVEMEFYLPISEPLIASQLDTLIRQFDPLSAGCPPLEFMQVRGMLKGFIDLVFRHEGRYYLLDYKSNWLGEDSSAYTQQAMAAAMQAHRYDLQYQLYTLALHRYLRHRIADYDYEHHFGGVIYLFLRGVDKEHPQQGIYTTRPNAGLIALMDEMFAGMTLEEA
T1 sequence (P07648 whole entry, chain 2 of 3): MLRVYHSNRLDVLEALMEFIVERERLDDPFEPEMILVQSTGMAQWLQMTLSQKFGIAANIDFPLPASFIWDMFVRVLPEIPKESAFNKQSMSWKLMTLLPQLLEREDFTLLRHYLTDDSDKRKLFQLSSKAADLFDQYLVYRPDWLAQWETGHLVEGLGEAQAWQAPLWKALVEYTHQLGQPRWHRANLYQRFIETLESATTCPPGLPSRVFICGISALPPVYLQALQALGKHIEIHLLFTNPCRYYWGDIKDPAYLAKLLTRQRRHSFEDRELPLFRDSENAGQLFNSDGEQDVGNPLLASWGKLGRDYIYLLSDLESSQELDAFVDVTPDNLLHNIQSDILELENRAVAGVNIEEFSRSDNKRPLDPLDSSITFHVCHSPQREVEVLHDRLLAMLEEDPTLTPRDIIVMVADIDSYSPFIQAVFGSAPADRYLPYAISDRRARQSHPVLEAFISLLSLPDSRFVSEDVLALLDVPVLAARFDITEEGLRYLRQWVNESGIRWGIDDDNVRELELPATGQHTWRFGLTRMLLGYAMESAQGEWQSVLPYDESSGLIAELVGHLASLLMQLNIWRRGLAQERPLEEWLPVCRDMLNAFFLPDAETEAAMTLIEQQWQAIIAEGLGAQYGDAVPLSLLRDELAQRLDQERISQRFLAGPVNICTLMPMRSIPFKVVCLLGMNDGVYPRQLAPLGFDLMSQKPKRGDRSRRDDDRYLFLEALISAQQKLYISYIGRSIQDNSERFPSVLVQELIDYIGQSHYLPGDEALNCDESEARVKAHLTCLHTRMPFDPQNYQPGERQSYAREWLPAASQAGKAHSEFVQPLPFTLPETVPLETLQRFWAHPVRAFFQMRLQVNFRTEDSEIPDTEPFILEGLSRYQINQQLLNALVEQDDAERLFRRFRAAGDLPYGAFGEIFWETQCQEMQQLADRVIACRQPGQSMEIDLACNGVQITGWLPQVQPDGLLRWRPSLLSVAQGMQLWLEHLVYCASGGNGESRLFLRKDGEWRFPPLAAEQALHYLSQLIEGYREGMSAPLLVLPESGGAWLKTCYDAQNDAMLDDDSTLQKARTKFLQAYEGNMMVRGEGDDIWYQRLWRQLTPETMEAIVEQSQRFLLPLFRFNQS
T1 sequence (P04993 whole entry, chain 3 of 3): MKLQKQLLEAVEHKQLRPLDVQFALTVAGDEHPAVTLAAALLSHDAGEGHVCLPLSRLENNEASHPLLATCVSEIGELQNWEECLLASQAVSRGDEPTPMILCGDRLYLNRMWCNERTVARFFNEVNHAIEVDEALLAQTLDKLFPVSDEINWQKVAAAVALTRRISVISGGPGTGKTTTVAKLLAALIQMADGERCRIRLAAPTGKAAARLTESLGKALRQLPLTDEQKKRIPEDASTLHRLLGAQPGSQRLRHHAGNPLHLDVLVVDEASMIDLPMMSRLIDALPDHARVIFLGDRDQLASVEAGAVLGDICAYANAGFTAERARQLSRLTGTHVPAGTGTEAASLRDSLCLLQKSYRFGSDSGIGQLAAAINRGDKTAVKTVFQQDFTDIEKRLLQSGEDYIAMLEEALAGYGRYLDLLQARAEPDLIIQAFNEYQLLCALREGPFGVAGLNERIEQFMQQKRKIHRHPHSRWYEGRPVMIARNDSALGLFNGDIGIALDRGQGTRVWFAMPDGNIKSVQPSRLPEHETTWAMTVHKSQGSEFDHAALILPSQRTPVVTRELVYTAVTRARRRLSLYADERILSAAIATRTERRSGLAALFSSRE

Turning to GATGTGACTCGTTACCTGAGTTTTTACTCAGGTAACGAGTCACATC (structured_DNA) [hpDNA-F], in data set [1], the binding result is “binds”.

With AGAGAGAGAGAGAGAGAGAGAGAG (ssDNA) [ssDNA-F], the binding result in data set [2] is “binds”.

B1: 3ohDNA-F (structured_DNA)
DNA: CATGTGACTCGTTACCTGAGTTTTTACTCAGGTAACGAGTCACATGATATATATAT
For B1, the Kd in data set [3] stood at 166 ± 41 nM.
